Test results from article PMC9301641.

Legend:
[1] = target: Snof3, yeast surface-displayed; assay: flow cytometry on cells
[2] = target: Snof10, yeast surface-displayed; assay: flow cytometry on cells
Snof3-LgBiT = assay: split reporter
SmBiT-Snof10 = assay: split reporter

B1: Sso6904 (natural protein)
chain: MMAMSILEDPEFVKLRQFKGKVNFNLVMQILDEIELDLRGSDNIKTSIIYVYSSHLDEIRKNKEFYDMIAEILQRYYKKIGIENVNQLILTTIK
In the case of B1, the Kd [1] is reported as 11 nM, the Kd [2] is reported as 28 nM and the Kd (Snof3-LgBiT) is reported as 20 nM. It also gave a Kd (SmBiT-Snof10) of 20 nM.
